Laboratory results reported in patent US20210277100A1 (SCHOLAR ROCK, published 2021).

T1: TGFβ2 growth factor (UniProt P61812 303-414)
T1 construct: domain: growth factor
T1 sequence (looked up): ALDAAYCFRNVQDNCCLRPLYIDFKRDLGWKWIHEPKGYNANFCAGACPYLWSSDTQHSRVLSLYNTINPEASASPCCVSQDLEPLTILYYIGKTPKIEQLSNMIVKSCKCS

T2: TGFβ3 growth factor (UniProt P10600 301-412)
T2 construct: domain: growth factor
T2 sequence (looked up): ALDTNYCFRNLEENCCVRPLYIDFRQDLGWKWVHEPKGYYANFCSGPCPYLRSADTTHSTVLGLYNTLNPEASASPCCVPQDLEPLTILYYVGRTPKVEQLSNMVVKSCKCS


Key:
[1] = biological target: human proTGFβ1 in complex with GARP expressed on transfected HEK293 or Sw480 cells (human, UniProt Q14392 20-662; P01137 30-390); assay: cell-based or functional assay
Sequence of human proTGFβ1 in complex with GARP expressed on transfected HEK293 or Sw480 cells (Q14392 20-662, chain 1 of 2): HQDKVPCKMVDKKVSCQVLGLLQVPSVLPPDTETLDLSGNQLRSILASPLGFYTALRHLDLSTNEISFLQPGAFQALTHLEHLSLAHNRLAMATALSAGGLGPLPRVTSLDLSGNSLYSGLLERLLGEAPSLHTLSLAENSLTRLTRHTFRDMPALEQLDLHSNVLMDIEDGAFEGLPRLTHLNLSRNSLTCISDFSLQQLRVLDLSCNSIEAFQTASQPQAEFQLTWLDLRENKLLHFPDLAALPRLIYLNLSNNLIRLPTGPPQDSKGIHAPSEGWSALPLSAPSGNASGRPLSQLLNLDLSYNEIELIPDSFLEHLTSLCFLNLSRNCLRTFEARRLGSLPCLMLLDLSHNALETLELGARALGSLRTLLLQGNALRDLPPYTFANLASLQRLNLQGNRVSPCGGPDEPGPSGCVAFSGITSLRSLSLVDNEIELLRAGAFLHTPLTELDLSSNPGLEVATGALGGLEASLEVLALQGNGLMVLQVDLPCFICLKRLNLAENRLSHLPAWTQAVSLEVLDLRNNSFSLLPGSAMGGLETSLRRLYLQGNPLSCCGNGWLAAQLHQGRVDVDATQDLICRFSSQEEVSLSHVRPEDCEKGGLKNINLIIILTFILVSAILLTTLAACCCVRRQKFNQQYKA
Sequence of human proTGFβ1 in complex with GARP expressed on transfected HEK293 or Sw480 cells (P01137 30-390, chain 2 of 2): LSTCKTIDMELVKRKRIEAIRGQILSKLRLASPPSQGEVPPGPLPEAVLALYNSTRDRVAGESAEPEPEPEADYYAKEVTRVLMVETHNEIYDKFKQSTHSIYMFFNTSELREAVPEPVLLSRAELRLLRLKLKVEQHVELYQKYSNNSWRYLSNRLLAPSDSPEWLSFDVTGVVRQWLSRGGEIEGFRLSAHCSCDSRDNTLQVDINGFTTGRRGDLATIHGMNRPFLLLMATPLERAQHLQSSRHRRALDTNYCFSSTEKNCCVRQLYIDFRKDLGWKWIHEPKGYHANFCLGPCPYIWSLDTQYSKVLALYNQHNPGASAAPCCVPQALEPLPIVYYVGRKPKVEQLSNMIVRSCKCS

TGFβ2 growth factor = biological target: T1, TGFβ2 growth factor; assay: BLI, OctetRed 384 (FIG. 4)
Method: (§1) The binding affinities of the proTGFβ1-GARP complex-selective antibody candidates to proTGFβ1-GARP complexes were measured by biolayer interferometry on an OctetRed 384 (Fortebio, Menlo Park, Calif.). Strepavidin biosensors (Fortebio, Cat. No. 18-5020) were loaded with biotinylated sGARP-proTGFβ1 complex at 20 μg/ml in sodium acetate buffer, pH 5, washed in the same buffer and transferred to wells containing 10 μg/mL proTGFβ1-GARP complex-selective antibody candidates in the same buffer. The dissociation constant was obtained by non-linear fitting of the responses to a steady state algorithm using Octet software (Table 4). Similar affinities were obtained by kinetic fitting.
(§2) To ascertain binding specificity, 4B1C1 and 4B16B9 were screened as above for binding to TGFβ1, TGFβ2, TGFβ3, proTGFβ1-LTBP1, proTGFβ1-LTBP3 and proTGFβ1-LRRC33. As described above, antibodies were tested at 10 μg/ml and antigens at 20 μg/ml and tested under the following conditions.
(§3) proTGFβ1-GARP complex-selective antibody candidates were measured by biolayer interferometry on an OctetRed 384 (Fortebio, Menlo Park, Calif.) for selectivity for proTGFβ1-GARP complex over other protein complexes (FIG. 4).

TGFβ3 growth factor = biological target: T2, TGFβ3 growth factor; assay: BLI, OctetRed 384 (FIG. 4)
Method: as §1, §2, §3

TGFβ1 growth factor [2] = biological target: T3, TGFβ1 growth factor (human, UniProt P01137 279-390); assay: BLI, OctetRed 384, antigen loaded on biosensor
T3 construct: domain: growth factor; also called TGFb1 (soluble form)
T3 sequence (P01137 279-390 limits assumed): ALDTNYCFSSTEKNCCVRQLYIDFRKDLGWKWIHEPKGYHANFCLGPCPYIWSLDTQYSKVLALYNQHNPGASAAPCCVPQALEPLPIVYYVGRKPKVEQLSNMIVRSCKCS
Method: as §1, §2

hGARP-TGFβ1-LAP = biological target: T4, hGARP-TGFβ1-LAP (human); assay: biolayer interferometry (OctetRed 384)
T4 construct: not given
T4 sequence (Q14392 20-627, chain 1 of 2): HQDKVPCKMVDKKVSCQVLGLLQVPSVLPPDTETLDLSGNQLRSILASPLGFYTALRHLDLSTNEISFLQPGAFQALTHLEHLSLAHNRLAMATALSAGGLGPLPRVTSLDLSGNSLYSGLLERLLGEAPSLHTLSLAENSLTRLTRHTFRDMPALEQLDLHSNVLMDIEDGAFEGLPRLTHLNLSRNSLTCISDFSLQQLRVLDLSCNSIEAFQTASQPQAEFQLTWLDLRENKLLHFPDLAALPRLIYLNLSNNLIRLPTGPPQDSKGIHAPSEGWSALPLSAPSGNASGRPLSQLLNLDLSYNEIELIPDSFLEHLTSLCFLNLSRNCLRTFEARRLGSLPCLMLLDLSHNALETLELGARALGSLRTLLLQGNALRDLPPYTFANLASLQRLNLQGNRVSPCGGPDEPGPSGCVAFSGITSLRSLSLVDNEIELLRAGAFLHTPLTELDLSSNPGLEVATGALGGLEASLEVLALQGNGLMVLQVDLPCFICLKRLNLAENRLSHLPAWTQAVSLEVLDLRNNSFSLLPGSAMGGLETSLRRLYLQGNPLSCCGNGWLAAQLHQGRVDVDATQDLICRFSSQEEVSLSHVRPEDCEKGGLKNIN
T4 sequence (P01137 30-390, chain 2 of 2, further chain): as the sequence (P01137 30-390, chain 2 of 2) above
Method: as §1, §3

rGARP-proTGFβ1 = biological target: T5, rGARP-proTGFβ1; assay: biolayer interferometry (OctetRed 384)
T5 construct: not given
Method: as §1, §3

TGFβ1 growth factor [3] = biological target: T3, TGFβ1 growth factor; assay: BLI, OctetRed 384 (FIG. 4)
Method: as §1, §2, §3

Binder | IC50 of inhibition of TGFβ1 activation, TMLC reporter cells [1] | binding result (TGFβ2 growth factor) | binding result (TGFβ3 growth factor) | binding result (TGFβ1 growth factor [2]) | Kd (hGARP-TGFβ1-LAP) | Kd (rGARP-proTGFβ1) | binding result (TGFβ1 growth factor [3])
4B1C1 (antibody, human IgG4 S228P, kappa, V domains shown, Fully human, from a phage display scFv; also called 4B1Cl; proTGFβ1-GARP complex-selective antibody candidate) VH: EVQLVQSGGVVVQPGGSLRLSCAASGFTFDDYTMHWVRQAPGKGLEWVSLISWDGGSTYYADSVKGRFTISRDNSKNSLYLQMNSLRTEDTALYYCAKDADDSTFDIWGQGTMVTVSS VL: ETTLTQSPATLSVSPGERVTLSCRASQSVSRNLAWYQQKPGQPPKLLIYWASTRESGVPDRFSGSGSGTDFTLTISSLQAEDVAVYYCQQYYSVPYTFGQGTKLEIKR | 0.178 nM | no binding | no binding | no binding | 11.3 nM | 0.187 nM | –
4B16B9 (antibody, human IgG4 S228P, lambda, V domains shown, Fully human, from a phage display scFv; also called proTGFβ1-GARP complex-selective antibody candidate) VH: QMQLVQSGAEVKKPGSSVKVSCKASGGTFSSYAISWVRQAPGQGLEWMGGIIPMFGTTNYAQKFQGRVTIIADESTSTAYMELRSLRSDDTAVYYCARDREWEPAYGMDVWGQGTTVTVSS VL: QSALTQPASVSGSPGQSITISCIGTSSDVGGYNYVSWYQQHPGKAPKLMIYDVSNRPSGVSNRFSGSKSGNTASLTISGLQAEDEAMYYCSAYTVSSTWVFGGGTKVTVLG | 1.9 nM | no binding | no binding | – | – | 0.158 nM | no binding
